No end group written: not given here. *: point of attachment. Biotin = O=C1N[C@H]2[C@H](CS[C@H]2CCCCC(=O)*)N1

Experimental findings from patent US11266642B2, “Small molecule inhibitors of HLA-DR3 binding for treating autoimmune thyroiditis” (ICAHN SCHOOL OF MEDICINE AT MOUNT SINAI, priority 2015, dated 2022) are described below.

For this test, the target named is T1, HLA-DR3 on VAVY cells (HLA-DRβ1-Arg74 positive) (Homo sapiens, UniProt P01903+P01911, A100K/A102G/A103R/A169T/F55Y/I96L/K41T/L162R/M171V/P40S/Q125H/Q178H/Q39Y/R42S/S66N/T106N/T262R/W38E/Y61H).
T1 construct: VAVY B-cell line that is homozygous for DR3 (confirmed to contain DRβ1-Arg74); host or cells: VAVY B-cell line
T1 sequence (P01903 26-254, other chains not shown): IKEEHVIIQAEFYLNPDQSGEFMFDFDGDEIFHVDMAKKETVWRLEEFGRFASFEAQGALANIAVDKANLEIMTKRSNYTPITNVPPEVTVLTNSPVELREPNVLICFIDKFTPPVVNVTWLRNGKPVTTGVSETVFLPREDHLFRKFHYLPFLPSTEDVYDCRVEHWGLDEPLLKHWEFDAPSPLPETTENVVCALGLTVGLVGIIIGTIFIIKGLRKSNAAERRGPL
Briefly: Tg.2098 peptide binding to VAVY cells, flow cytometry. In kind it is cell-based. As to conditions: incubated without Ia (40% Captisol alone); biotinylated peptide. As for the experimental part:
VAVY cells (European Collection of Cell Cultures) were cultured in RPMI (ATCC, Manassas, Va.) supplied with 10% FBS (Sigma-Aldrich, St. Louis, Mo.), 1% Penicillin-Streptomycin (Corning, N.Y.), 2 mM glutamine (Corning, N.Y.) and […] ciprofloxacin hydrochloride (Hospira, Lake Forest, Ill.). Cells were grown at 37° C., 5% CO2 and passaged 1-2 times a week. Cells expressing DR2 (National Development and Research Institutes, Inc) were cultured using the same conditions as VAVY cells. N-terminal biotinylated peptide Tg.2098 was used to test for binding to VAVY cells which express HLA-DR3 on their surface (HLA-DRβ1-Arg74 positive). APC Streptavidin (BD Biosciences, Franklin Lakes, N.J.) was used to detect the biotinylated peptides. A scrambled peptide of Tg.2098 (scr2098) was used as a negative control. VAVY cells were seeded at 2.5×10^6 cells/mL in a 24-well plate (BD Biosciences) and pre-incubated for 7 hours with 0.025 mM of compound Ia or 40% Captisol (Ligand Pharmaceuticals, Inc, La Jolla, Calif.) [the vehicle used to dissolve test compound in this experiment], before 0.5 μM Tg.2098 was added. After 24 h incubation, cells were stained with PE mouse anti-human HLA-DR (BD Biosciences) and APC Streptavidin to detect binding of the peptide to VAVY cells and the inhibitory effect of Compound Ia. Inhibition was analyzed by flow cytometry. As a negative control, cells expressing HLA-DR2 were pre-incubated with example Ia or 40% Captisol, before biotinylated myelin basic protein (MBP) 87-99 (known binder to HLA-DR2) was added and incubated for 24 hours. HLA-DR2 cells were stained with PE mouse anti-human HLA-DR and APC Streptavidin to detect binding of biotinylated MBP87-99 to DR2 expressing cells and to assess the inhibitory effect of compound Ia on peptide binding. To confirm the ELISA results we performed binding inhibition studies using the VAVY B-cell line that is homozygous for DR3 (confirmed to contain DRβ1-Arg74). […]

Take HDLFSRIDSSVVVVP [scr.2098]: the “binding of peptide to HLA-DR3-positive VAVY cells” value amounted to 2.1%. As for “LSSVVVDPSIRHFDV (Biotin-LSSVVVDPSIRHFDV) [Tg.2098]”, the “binding of peptide to HLA-DR3-positive VAVY cells” value amounted to 42.7%.
